{"source": "patent US20190134089A1", "about": "(GEORGIA STATE UNIVERSITY RESEARCH FOUNDATION, published 2019)", "binders": {"B1": {"name": "murine signal regulatory protein α (SIRPα) on macrophages (receptor, mouse, UniProt P97797 32-513, looked up)", "chain": "KELKVTQPEKSVSVAAGDSTVLNCTLTSLLPVGPIRWYRGVGPSRLLIYSFAGEYVPRIRNVSDTTKRNNMDFSIRISNVTPADAGIYYCVKFQKGSSEPDTEIQSGGGTEVYVLAKPSPPEVSGPADRGIPDQKVNFTCKSHGFSPRNITLKWFKDGQELHPLETTVNPSGKNVSYNISSTVRVVLNSMDVNSKVICEVAHITLDRSPLRGIANLSNFIRVSPTVKVTQQSPTSMNQVNLTCRAERFYPEDLQLIWLENGNVSRNDTPKNLTKNTDGTYNYTSLFLVNSSAHREDVVFTCQVKHDQQPAITRNHTVLGFAHSSDQGSMQTFPDNNATHNWNVFIGVGVACALLVVLLMAALYLLRIKQKKAKGSTSSTRLHEPEKNAREITQVQSLIQDTNDINDITYADLNLPKEKKPAPRAPEPNNHTEYASIETGKVPRPEDTLTYADLDMVHLSRAQPAPKPEPSFSEYASVQVQRK", "notes": "whole, on cells; Endogenous protein of WT mouse macrophages; In the co-immunoprecipitations it is tyrosine-phosphorylated in its cytoplasmic ITIMs (SIRPα pY); also called murine SIRPα; surface signal regulatory protein α"}}, "key": {"[1]": {"target": "B1", "assay": "note on the reagent used to ligate SIRPα on WT macrophages (FIG. 10)"}, "[2]": {"target": "T1, SHP-1 (SH2-containing tyrosine phosphatase) of mouse macrophages (mouse, UniProt P29351 1-595, limits assumed)", "T1 construct": "Detected by Western blot in SIRPα immunoprecipitates", "T1 sequence (P29351 whole entry)": "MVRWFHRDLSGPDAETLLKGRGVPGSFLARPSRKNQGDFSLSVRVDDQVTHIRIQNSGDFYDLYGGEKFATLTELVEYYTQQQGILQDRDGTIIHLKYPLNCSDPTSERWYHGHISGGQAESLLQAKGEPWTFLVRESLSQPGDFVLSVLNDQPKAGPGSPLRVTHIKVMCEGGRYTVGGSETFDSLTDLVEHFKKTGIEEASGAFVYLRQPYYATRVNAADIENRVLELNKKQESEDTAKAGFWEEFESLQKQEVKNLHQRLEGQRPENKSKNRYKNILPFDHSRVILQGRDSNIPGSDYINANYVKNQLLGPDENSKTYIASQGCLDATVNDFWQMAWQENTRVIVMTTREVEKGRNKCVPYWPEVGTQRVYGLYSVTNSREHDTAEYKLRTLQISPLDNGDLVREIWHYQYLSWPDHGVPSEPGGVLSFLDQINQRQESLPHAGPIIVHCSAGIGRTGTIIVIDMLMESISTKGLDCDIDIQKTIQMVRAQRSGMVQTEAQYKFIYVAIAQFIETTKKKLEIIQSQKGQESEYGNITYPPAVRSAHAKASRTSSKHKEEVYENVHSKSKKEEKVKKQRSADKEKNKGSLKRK", "assay": "SIRPα immunoprecipitation from LPS- or IL-17-treated WT PEM lysates, WB for SHP-1", "method": "FIGS. 4A-4E include data related to our experiments on macrophage phagocytic plasticity. FIG. 4A is a panel of illustrative line graphs showing that IL-10 inhibits macrophage phagocytosis toward “self.” PEMs were treated with LPS and activating cytokines along with various concentrations of IL-10 before testing their ability to phagocytose RBCs. FIG. 4B illustrates the phagocytic plasticity of WT red pulp macrophages. […] Treatments of cultured macrophages with LPS and IL-17 re-elicited their phagocytosis toward RBCs. […] Error bars are ±SEM. ***P<0.001 vs. freshly isolated splenic macrophages. FIG. 4D includes microscopic images of RBC phagocytosis by LPS- and IL-17-treated splenic macrophages. […] WT PEMs treated with LPS or IL-17 were further treated with Cd47⁺ RBCs or Cd47-AP (10 min, 37° C.) followed by cell lysis, SIRPα immunoprecipitation, and WB detection of SIRPα phosphorylation (SIRPα^pY) and SHP-1 association. Data presented in each panel represent at least three independent experiments with n≥4, if applicable."}}, "data": [{"binder": "mCD47-AP, soluble murine CD47 extracellular domain fusion protein (other, mouse, UniProt Q61735 19-140, looked up, not shown: large carriers, extracellular domain) QLLFSNVNSIEFTSCNETVVIPCIVRNVEAQSTEEMFVKWKLNKSYIFIYDGNKNSTTTDQNFTSAKISVSDLINGIASLKMDKRDAMVGNYTCEVTELSREGKTVIELKNRTVSWFSPNEK", "values": [{"measurement": "binding result", "setting": "[1]", "result": "binds"}]}, {"binder": "B1", "values": [{"measurement": "binding result", "setting": "[2]", "result": "binds"}]}]}
